Reference: patent publication US20230312744A1, “Modulatory Substance of Tumor Immune Microenvironment, and Preventive, Diagnostic and/or Therapeutic Utilization of the Same” (The University Of Tokyo, priority 2020, published 2023)

System: Cxcl1 mRNA from PECs
Assay: PECs stimulated with supernatant of dead SL4 cells containing antibody, Cxcl1 mRNA by RT-qPCR
Format: cell-based, mouse
Details: PECs stimulated 2 hours with culture supernatant of SL4 cells containing 55F3, vs control IgG, FIG. 12(b)
Experimental: In FIG. 12(b), PECs (2×10^5 cells) were stimulated with a supernatant of dead SL4 cells comprising the 55F3 antibody or control IgG. After the stimulation for 2 hours, the expressed Cxcl1 mRNA was quantified by RT-qPCR. n=3, and Sup: culture supernatant. In FIG. 12(c), TCTP WT SL4 cells or TCTP KO SL4 cells ([…]) were subcutaneously transplanted into C57BL/6 mice. After the transplantation, DHA (50 mg/kg) or DMSO was intraperitoneally administered to the mice every day (n=6). In FIG. 12(d), (left view) the expression level of TCTP in the interstitial area of normal large intestinal tissues was compared with the expression level of TCTP in the interstitial area of colorectal cancer tissues. In FIG. 12(d), (right view) a normal colon crypt was compared with a neoplastic lesion. […] Spearman r: spearman correlation coefficients. *P<0.05, **P<0.01. Regarding FIG. 12(b), repeated measures one-way ANOVA with Dunnett's multiple comparisons test. Regarding FIG. 12(c), repeated measures one-way ANOVA with Tukey's multiple comparisons test. Regarding FIG. 12(d), unpaired two-sided Student's t-test. NS indicates “no significant difference.” The data are shown as a mean value ±[…] (s.e.m.).
RAW264.7 cells, the mouse melanoma cell line B16F10 cells, the mouse fibrosarcoma cell line Meth-A cells, and HEK293T cells were obtained from RIKEN BioResource Center (Japan). […]

B1: 55F3: Mouse monoclonal antibody against human TCTP peptide SEQ ID NO: 25; CDRs SEQ ID NO: 1-6, VH SEQ ID NO: 19, VL SEQ ID NO: 22 (antibody, listed as Mus musculus)
VH: MRVLILLWLFTAFPGILSDVQLQESGPGLVKPSQSLSLTCTATGYSIASDYAWNWIRQFPGNKLEWMGYINYSGSTGYNPSLKSRISITRDTSKNQFFLQLNSVTTEDTATYYCARFEAGYWGQGTTLTVSSAKTTPPSVYPLAPGSAAQTNSMVTLGCLVKGYFPEPVT
VL: MDMRTPAQFLGILLLWFPGIKCDIKMTQSPSSMSASLGERVTITCKASQDINRYLSWFQQKPGKSPKTLIYRANRLVDGVPSRFSGSGSGQDYSLTISSLEYGDMGIYYCLQYNEFPLTFGAGTKLELKRADAAPTVSIFPPSSEQLTSGGASVVCFLN
expression of Cxcl1 mRNA from PECs: suppressed
